The values that follow are results of earlier work, collected in PMC3197216.

Data set [1] has as its target GluA3 ATD (Rattus norvegicus) (UniProt P19492).
Data set [2] concerns the target KA2 ATD (Rattus norvegicus) (UniProt Q63273).
Data set [3] deals with NR2 ATD (Rattus norvegicus) (UniProt Q00960).
Sequence of UniProt Q00960 (Q00960 31-394): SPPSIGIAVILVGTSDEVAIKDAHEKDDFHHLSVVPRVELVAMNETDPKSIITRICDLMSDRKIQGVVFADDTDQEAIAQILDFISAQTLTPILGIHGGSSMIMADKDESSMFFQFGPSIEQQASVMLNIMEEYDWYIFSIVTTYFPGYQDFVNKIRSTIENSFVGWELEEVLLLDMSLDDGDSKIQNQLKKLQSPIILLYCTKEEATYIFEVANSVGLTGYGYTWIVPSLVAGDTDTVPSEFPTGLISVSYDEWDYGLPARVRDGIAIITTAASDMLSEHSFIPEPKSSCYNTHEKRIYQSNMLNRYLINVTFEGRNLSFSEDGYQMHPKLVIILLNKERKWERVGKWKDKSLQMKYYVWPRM

Sequence of UniProt Q63273 (Q63273 20-402): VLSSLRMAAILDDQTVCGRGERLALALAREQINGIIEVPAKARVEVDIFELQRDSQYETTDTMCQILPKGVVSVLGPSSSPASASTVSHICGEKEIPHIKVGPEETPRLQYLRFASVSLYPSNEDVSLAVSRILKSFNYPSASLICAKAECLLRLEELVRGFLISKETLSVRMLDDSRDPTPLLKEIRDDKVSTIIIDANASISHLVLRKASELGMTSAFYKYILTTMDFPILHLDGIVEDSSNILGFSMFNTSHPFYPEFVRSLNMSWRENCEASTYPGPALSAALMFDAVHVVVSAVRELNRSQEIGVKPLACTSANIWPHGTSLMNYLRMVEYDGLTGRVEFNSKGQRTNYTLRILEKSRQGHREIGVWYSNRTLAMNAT

As for GluA3 ATD (from UniProt P19492), the Kd in data set [1] was 1200 nM. Consider GluR6 ATD (from UniProt P42260), for which the dissociation constant (Kd) in data set [2] is 11 nM. Consider NR1 ATD (from UniProt P35439), for which, in data set [3], the Kd is 700 nM.

By Kd is commonly meant the free concentration of one partner at which half of the binding sites on the other are occupied at equilibrium, for simple one-to-one binding.
